Results reported in paper PMC6391317.

What was measured:
[1] = biological target: T1, thrombin (alpha-thrombin) (human, UniProt P00734;P00734 328-363;364-622); experiment: capillary electrophoresis; simulated body plasma ionic buffer (SBP); exosite II; CE: 400 nM thrombin + 100 nM fluorescein-labeled aptamer in simulated body plasma ionic buffer (SBP; composition and pH not given in the material), 37 C for 2 m
[2] = biological target: T1, thrombin (alpha-thrombin); experiment: capillary electrophoresis; simulated body plasma ionic buffer (SBP); exosite I; CE: 400 nM thrombin + 100 nM fluorescein-labeled aptamer in simulated body plasma ionic buffer (SBP; composition and pH not given in the material), 37 C for 2 m

Binder | Kd [1] | Kd [2]
AGTCCGTGGTAGGGCAGGTTGGGGTGACT (structured_DNA) [HD22] | 97.6 nM | 
GGTTGGTGTGGTTGG (structured_DNA) [HD1] |  | 258 nM
